This note sets out measurements from article PMC4963197, “Phosphorylation acts positively and negatively to regulate MRTF-A subcellular localisation and activity” (eLife, 2016).

The test has as its target G-actin (UniProt P68135). The test can be described thus: size exclusion chromatography. Background: SEC sorts molecules by how far they enter the pores of the column.

As to MRTF-A(67–199) L74A; L78A, the other: actins (apparent stoichiometry of G-actin binding) was 2.2.
